This is an account of results in publication PMC6888645.

Assay [1] addresses TD-N-CAP2, human CAP2 helical folded domain with the coiled coil (a.a. 1-29) replaced by the trimerization domain 2L6HC3_6 (human). The assay is described as follows: AUC; sedimentation velocity (SV-AUC), 50 µM protein, 20 °C, 50,000 rpm, absorbance at 280 nm, 20 mM Tris-HCl pH 8.0, SEDFIT c(S) model; buffer (Tris-HCl vs PBS) and salt did not affect the oligomerization state.
Assay [2] has the same target. The experiment in a line: native MS; 100-300 pmole protein (as monomer), online buffer exchange to 200 mM ammonium acetate pH 6.8, Orbitrap EMR, deconvolution with UniDec.
The target in assay [3] is DD-N-CAP1, human CAP1 helical folded domain with the coiled coil (a.a. 1-29) replaced by the dimerization domain 2L4HC2_23 (human). The assay is described as follows: AUC; sedimentation velocity (SV-AUC), 50 µM protein, 20 °C, 50,000 rpm, absorbance at 280 nm, 20 mM Tris-HCl pH 8.0, SEDFIT c(S) model; buffer (Tris-HCl vs PBS) and salt did not affect the oligomerization state.

The target is the same in assay [4]. The experiment in a line: native MS; 100-300 pmole protein (as monomer), online buffer exchange to 200 mM ammonium acetate pH 6.8, Orbitrap EMR, deconvolution with UniDec.
Assay [5] concerns the target TD-N-CAP1, human CAP1 helical folded domain with the coiled coil (a.a. 1-29) replaced by the trimerization domain 2L6HC3_6 (human). The assay is described as follows: AUC; sedimentation velocity (SV-AUC), 50 µM protein, 20 °C, 50,000 rpm, absorbance at 280 nm, 20 mM Tris-HCl pH 8.0, SEDFIT c(S) model; buffer (Tris-HCl vs PBS) and salt did not affect the oligomerization state.

Assay [6] has the same target. The experiment in a line: native MS; 100-300 pmole protein (as monomer), online buffer exchange to 200 mM ammonium acetate pH 6.8, Orbitrap EMR, deconvolution with UniDec.
In assay [7] the target is DD-N-CAP2, human CAP2 helical folded domain with the coiled coil (a.a. 1-29) replaced by the dimerization domain 2L4HC2_23 (human). The experiment in a line: AUC; sedimentation velocity (SV-AUC), 50 µM protein, 20 °C, 50,000 rpm, absorbance at 280 nm, 20 mM Tris-HCl pH 8.0, SEDFIT c(S) model; buffer (Tris-HCl vs PBS) and salt did not affect the oligomerization state.
Assay [8] shares this target. The experiment in a line: native MS; 100-300 pmole protein (as monomer), online buffer exchange to 200 mM ammonium acetate pH 6.8, Orbitrap EMR, deconvolution with UniDec.

For the substance “TD-N-CAP2, human CAP2 helical folded domain with the coiled coil (a.a. 1-29) replaced by the trimerization domain 2L6HC3_6”, the stoichiometry N in assay [1] and in assay [2] was 3 throughout.
For the substance “DD-N-CAP1, human CAP1 helical folded domain with the coiled coil (a.a. 1-29) replaced by the dimerization domain 2L4HC2_23”, the stoichiometry N in assay [3] and in assay [4] was 2 throughout.
Consider “TD-N-CAP1, human CAP1 helical folded domain with the coiled coil (a.a. 1-29) replaced by the trimerization domain 2L6HC3_6”, for which the stoichiometry N in assay [5] and in assay [6] was 3 throughout.
Turning to “DD-N-CAP2, human CAP2 helical folded domain with the coiled coil (a.a. 1-29) replaced by the dimerization domain 2L4HC2_23”, the stoichiometry N in assay [7] and in assay [8] was 2 each time.

One may read the stoichiometry N as the number of molecules, sites or subunits per partner or assembly.
